From the supplement of paper PMC10567573

B1: ZNF649 (parent)
chain: LTEHKRIHTGKKPHVCSLCGKAFY

Variants of: B1
Assay: protein stability index of a GFP-peptide fusion (GPS, HEK-293T) (PSI 1-6); higher = more stable
Settings: c terminus: a fixed tail appended
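Note: lentivirally expressed fusions sorted by FACS into six bins by GFP to DsRed ratio, PSI derived from sequencing read proportions per bin multiplied by bin number.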

Row | Variant | protein stability index
1 | STEHKRIHTGKKPHVCSLCGKAFY [L1S] | 2.81
2 | TTEHKRIHTGKKPHVCSLCGKAFY [L1T] | 2.58
3 | VTEHKRIHTGKKPHVCSLCGKAFY [L1V] | 2.57
4 | WTEHKRIHTGKKPHVCSLCGKAFY [L1W] | 2.17
5 | YTEHKRIHTGKKPHVCSLCGKAFY [L1Y] | 3.44
6 | LAEHKRIHTGKKPHVCSLCGKAFY [T2A] | 2.57
7 | LCEHKRIHTGKKPHVCSLCGKAFY [T2C] | 3.94
8 | LDEHKRIHTGKKPHVCSLCGKAFY [T2D] | 3.12
9 | LEEHKRIHTGKKPHVCSLCGKAFY [T2E] | 3.01
10 | LFEHKRIHTGKKPHVCSLCGKAFY [T2F] | 1.7
11 | LGEHKRIHTGKKPHVCSLCGKAFY [T2G] | 2.25
12 | LHEHKRIHTGKKPHVCSLCGKAFY [T2H] | 2.46
13 | LIEHKRIHTGKKPHVCSLCGKAFY [T2I] | 2.04
14 | LKEHKRIHTGKKPHVCSLCGKAFY [T2K] | 2.26
15 | LLEHKRIHTGKKPHVCSLCGKAFY [T2L] | 2.09
16 | LMEHKRIHTGKKPHVCSLCGKAFY [T2M] | 2.16
17 | LNEHKRIHTGKKPHVCSLCGKAFY [T2N] | 2.32
18 | LPEHKRIHTGKKPHVCSLCGKAFY [T2P] | 2.32
19 | LQEHKRIHTGKKPHVCSLCGKAFY [T2Q] | 2.58
20 | LREHKRIHTGKKPHVCSLCGKAFY [T2R] | 2.78
21 | LSEHKRIHTGKKPHVCSLCGKAFY [T2S] | 3
22 | LVEHKRIHTGKKPHVCSLCGKAFY [T2V] | 2.27
23 | LWEHKRIHTGKKPHVCSLCGKAFY [T2W] | 2
24 | LYEHKRIHTGKKPHVCSLCGKAFY [T2Y] | 2.31

Row | Variant | protein stability index
25 | LTAHKRIHTGKKPHVCSLCGKAFY [E3A] | 2.47
26 | LTCHKRIHTGKKPHVCSLCGKAFY [E3C] | 2.38
27 | LTDHKRIHTGKKPHVCSLCGKAFY [E3D] | 2.71
28 | LTFHKRIHTGKKPHVCSLCGKAFY [E3F] | 2.31
29 | LTGHKRIHTGKKPHVCSLCGKAFY [E3G] | 1.79
30 | LTHHKRIHTGKKPHVCSLCGKAFY [E3H] | 1.68
31 | LTIHKRIHTGKKPHVCSLCGKAFY [E3I] | 1.96
32 | LTKHKRIHTGKKPHVCSLCGKAFY [E3K] | 2.93
33 | LTLHKRIHTGKKPHVCSLCGKAFY [E3L] | 1.15
34 | LTMHKRIHTGKKPHVCSLCGKAFY [E3M] | 1.89
35 | LTNHKRIHTGKKPHVCSLCGKAFY [E3N] | 2.22
36 | LTPHKRIHTGKKPHVCSLCGKAFY [E3P] | 2.45
37 | LTQHKRIHTGKKPHVCSLCGKAFY [E3Q] | 2.32
38 | LTRHKRIHTGKKPHVCSLCGKAFY [E3R] | 1.86
39 | LTSHKRIHTGKKPHVCSLCGKAFY [E3S] | 2.59
40 | LTTHKRIHTGKKPHVCSLCGKAFY [E3T] | 1.67
41 | LTVHKRIHTGKKPHVCSLCGKAFY [E3V] | 2.23
42 | LTWHKRIHTGKKPHVCSLCGKAFY [E3W] | 1.71
43 | LTYHKRIHTGKKPHVCSLCGKAFY [E3Y] | 2.89
44 | LTEAKRIHTGKKPHVCSLCGKAFY [H4A] | 2.22
45 | LTECKRIHTGKKPHVCSLCGKAFY [H4C] | 2.78
46 | LTEDKRIHTGKKPHVCSLCGKAFY [H4D] | 2.9
47 | LTEEKRIHTGKKPHVCSLCGKAFY [H4E] | 3.02
48 | LTEFKRIHTGKKPHVCSLCGKAFY [H4F] | 2.33

Row | Variant | protein stability index
49 | LTEGKRIHTGKKPHVCSLCGKAFY [H4G] | 2.4
50 | LTEIKRIHTGKKPHVCSLCGKAFY [H4I] | 2.19
51 | LTEKKRIHTGKKPHVCSLCGKAFY [H4K] | 2.28
52 | LTELKRIHTGKKPHVCSLCGKAFY [H4L] | 2.11
53 | LTEMKRIHTGKKPHVCSLCGKAFY [H4M] | 2.47
54 | LTENKRIHTGKKPHVCSLCGKAFY [H4N] | 2.84
55 | LTEPKRIHTGKKPHVCSLCGKAFY [H4P] | 2.43
56 | LTEQKRIHTGKKPHVCSLCGKAFY [H4Q] | 3.31
57 | LTERKRIHTGKKPHVCSLCGKAFY [H4R] | 2.24
58 | LTESKRIHTGKKPHVCSLCGKAFY [H4S] | 2.58
59 | LTETKRIHTGKKPHVCSLCGKAFY [H4T] | 2.52
60 | LTEVKRIHTGKKPHVCSLCGKAFY [H4V] | 1.94
61 | LTEWKRIHTGKKPHVCSLCGKAFY [H4W] | 2.78
62 | LTEYKRIHTGKKPHVCSLCGKAFY [H4Y] | 2.36
63 | LTEHARIHTGKKPHVCSLCGKAFY [K5A] | 3.06
64 | LTEHCRIHTGKKPHVCSLCGKAFY [K5C] | 4.3
65 | LTEHDRIHTGKKPHVCSLCGKAFY [K5D] | 3.35
66 | LTEHERIHTGKKPHVCSLCGKAFY [K5E] | 3.03
67 | LTEHFRIHTGKKPHVCSLCGKAFY [K5F] | 2.25
68 | LTEHIRIHTGKKPHVCSLCGKAFY [K5I] | 3
69 | LTEHLRIHTGKKPHVCSLCGKAFY [K5L] | 2.23
70 | LTEHMRIHTGKKPHVCSLCGKAFY [K5M] | 2.79
71 | LTEHNRIHTGKKPHVCSLCGKAFY [K5N] | 3.39
72 | LTEHPRIHTGKKPHVCSLCGKAFY [K5P] | 1.15

Row | Variant | protein stability index
73 | LTEHQRIHTGKKPHVCSLCGKAFY [K5Q] | 2.79
74 | LTEHRRIHTGKKPHVCSLCGKAFY [K5R] | 2.63
75 | LTEHSRIHTGKKPHVCSLCGKAFY [K5S] | 2.3
76 | LTEHTRIHTGKKPHVCSLCGKAFY [K5T] | 2.88
77 | LTEHVRIHTGKKPHVCSLCGKAFY [K5V] | 2.48
78 | LTEHWRIHTGKKPHVCSLCGKAFY [K5W] | 3.18
79 | LTEHKCIHTGKKPHVCSLCGKAFY [R6C] | 4.05
80 | LTEHKDIHTGKKPHVCSLCGKAFY [R6D] | 2.93
81 | LTEHKEIHTGKKPHVCSLCGKAFY [R6E] | 3.42
82 | LTEHKFIHTGKKPHVCSLCGKAFY [R6F] | 2.33
83 | LTEHKGIHTGKKPHVCSLCGKAFY [R6G] | 1.94
84 | LTEHKHIHTGKKPHVCSLCGKAFY [R6H] | 3.63
85 | LTEHKIIHTGKKPHVCSLCGKAFY [R6I] | 2.71
86 | LTEHKKIHTGKKPHVCSLCGKAFY [R6K] | 2.33
87 | LTEHKLIHTGKKPHVCSLCGKAFY [R6L] | 2.14
88 | LTEHKNIHTGKKPHVCSLCGKAFY [R6N] | 2.58
89 | LTEHKQIHTGKKPHVCSLCGKAFY [R6Q] | 4.11
90 | LTEHKSIHTGKKPHVCSLCGKAFY [R6S] | 2.25
91 | LTEHKTIHTGKKPHVCSLCGKAFY [R6T] | 3.08
92 | LTEHKWIHTGKKPHVCSLCGKAFY [R6W] | 2.75
93 | LTEHKYIHTGKKPHVCSLCGKAFY [R6Y] | 2.5
94 | LTEHKRAHTGKKPHVCSLCGKAFY [I7A] | 2.52
